The values that follow come from US20220009993A1.

This assay deals with CD19 on CD19+ cells (Nalm6 and Namalwa) (human) (UniProt P15391). Kind of assay: cell-based or functional assay.
UniProt P15391, sequence (P15391 20-556): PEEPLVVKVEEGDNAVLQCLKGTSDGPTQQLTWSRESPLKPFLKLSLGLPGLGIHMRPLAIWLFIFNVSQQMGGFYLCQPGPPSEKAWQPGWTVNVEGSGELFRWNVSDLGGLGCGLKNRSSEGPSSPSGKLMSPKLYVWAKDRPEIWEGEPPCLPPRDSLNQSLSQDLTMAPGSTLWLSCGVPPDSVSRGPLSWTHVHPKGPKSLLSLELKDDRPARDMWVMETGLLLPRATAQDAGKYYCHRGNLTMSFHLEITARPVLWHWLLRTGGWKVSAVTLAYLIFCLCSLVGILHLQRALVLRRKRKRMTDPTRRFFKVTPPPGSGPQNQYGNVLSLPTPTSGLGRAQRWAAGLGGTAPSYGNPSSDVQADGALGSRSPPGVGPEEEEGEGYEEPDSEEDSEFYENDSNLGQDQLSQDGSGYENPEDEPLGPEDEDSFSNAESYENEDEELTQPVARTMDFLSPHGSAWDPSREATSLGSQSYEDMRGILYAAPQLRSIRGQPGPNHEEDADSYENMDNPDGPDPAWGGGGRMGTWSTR

Regarding “ARI, a second-generation anti-CD19 CAR, expressed on primary T cells from the AWARI lentiviral vector (AW promoter, SEQ ID NO 1)”, the specific lysis of CD19+ cells (Nalm6, Namalwa) after 48 h co-culture, relative to non-transduced T cells was 70 to 80%.
